Reference: patent publication US7943731 (MIT, dated 2011)

Target: the molecule itself
Test: sedimentation equilibrium, self-association in solution without DNA
Protocol: Sedimentation Equilibrium. Peptide samples at three concentrations, ranging from ≈10 µM to ≈100 µM, were centrifuged to equilibrium in a Beckman Optima XL-A at 20,000 and 30,000 rpm at 4° C. in a buffer containing 15 mM Tris, pH 7.8, 150 mM KCl, 5 mM MgCl_2, 20 µM ZnSO_4, and 0.2 mM DTT. Solvent density and partial specific volumes of peptides were calculate at described (13). The sedimentation data were analyzed by methods described in refs. 14 and 15, using the program NONLIN (16).

B1: Zif12 peptide (amino acids 2-59 of Zif268, Gly-Ser dipeptide at the N terminus) (other)
chain: not shown
notes: range 2-59; No N-terminal peptide extension; also called isolated Zif12 domain; Zif1-Zif2 construct
**Q.** Does B1 bind?
**A.** no binding (tested: ≈100 µM)
